Measurements reported in patent US20090081786A1, “Peptide sequences for modulation of protein kinase C” (priority 2006, published 2009).

Target: δ-PKC in isolated rat hearts (rat), P09215
Assay: cell-based or functional assay

Sequence of δ-PKC in isolated rat hearts (rat), P09215 (P09215 whole entry, stated change not applied): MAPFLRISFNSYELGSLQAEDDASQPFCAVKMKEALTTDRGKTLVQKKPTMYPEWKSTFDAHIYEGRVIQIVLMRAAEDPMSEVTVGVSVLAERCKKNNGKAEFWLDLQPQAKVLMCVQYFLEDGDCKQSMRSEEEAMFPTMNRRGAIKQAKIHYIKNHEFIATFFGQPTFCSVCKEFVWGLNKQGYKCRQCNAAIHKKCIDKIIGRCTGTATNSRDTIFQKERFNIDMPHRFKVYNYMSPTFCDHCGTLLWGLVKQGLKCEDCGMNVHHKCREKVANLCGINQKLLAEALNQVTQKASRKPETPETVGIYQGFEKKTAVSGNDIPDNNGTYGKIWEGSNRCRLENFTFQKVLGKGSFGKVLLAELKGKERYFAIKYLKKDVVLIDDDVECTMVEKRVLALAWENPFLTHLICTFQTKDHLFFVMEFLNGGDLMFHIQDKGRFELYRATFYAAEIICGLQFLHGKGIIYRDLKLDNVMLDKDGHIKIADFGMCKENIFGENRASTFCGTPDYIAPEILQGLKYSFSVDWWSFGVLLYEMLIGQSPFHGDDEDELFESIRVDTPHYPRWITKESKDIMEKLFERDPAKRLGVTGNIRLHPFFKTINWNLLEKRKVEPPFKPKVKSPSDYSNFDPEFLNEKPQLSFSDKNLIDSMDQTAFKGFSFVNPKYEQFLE

B1: annexin V-derived peptide pAnxV (annexin V residues 157-164) conjugated to TAT47-57 carrier peptide (peptide)
peptide: LQANRDPD
chain: YGKKRRQRRR
modifications: not checked
- creatine phosphokinase (CPK) release in the heart perfusate during reperfusion: > 50 % reduction
- infarct size after ischemia/reperfusion in isolated rat hearts: 70 % reduction
